Here are results for two molecules from patent publication KR20190026632A (dated 2019).

Experiment [1] deals with T1, His-WRS (UniProt P23381 1-471, limits assumed).
T1 construct: not shown: His tag
T1 sequence (looked up): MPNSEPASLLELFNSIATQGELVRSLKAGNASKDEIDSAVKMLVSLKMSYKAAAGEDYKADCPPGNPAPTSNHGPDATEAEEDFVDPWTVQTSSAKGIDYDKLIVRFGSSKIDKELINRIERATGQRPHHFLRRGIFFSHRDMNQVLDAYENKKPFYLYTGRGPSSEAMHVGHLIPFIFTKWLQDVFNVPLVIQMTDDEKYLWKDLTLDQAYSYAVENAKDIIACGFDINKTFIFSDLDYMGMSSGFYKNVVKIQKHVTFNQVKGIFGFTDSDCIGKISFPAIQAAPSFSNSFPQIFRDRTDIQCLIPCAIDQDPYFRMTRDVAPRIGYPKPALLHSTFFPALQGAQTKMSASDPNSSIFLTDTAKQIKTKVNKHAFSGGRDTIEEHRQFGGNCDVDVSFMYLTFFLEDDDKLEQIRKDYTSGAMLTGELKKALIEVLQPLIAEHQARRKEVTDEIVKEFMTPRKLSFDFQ
As to the kind of experiment: ELISA; protein coated at 1 μg/ml, OD 450 nm. Background: ELISA stands for enzyme-linked immunosorbent assay.

The target of experiment [2] is T2, His-GRS (UniProt P41250 55-739).
T2 construct: not shown: His tag
T2 sequence (looked up): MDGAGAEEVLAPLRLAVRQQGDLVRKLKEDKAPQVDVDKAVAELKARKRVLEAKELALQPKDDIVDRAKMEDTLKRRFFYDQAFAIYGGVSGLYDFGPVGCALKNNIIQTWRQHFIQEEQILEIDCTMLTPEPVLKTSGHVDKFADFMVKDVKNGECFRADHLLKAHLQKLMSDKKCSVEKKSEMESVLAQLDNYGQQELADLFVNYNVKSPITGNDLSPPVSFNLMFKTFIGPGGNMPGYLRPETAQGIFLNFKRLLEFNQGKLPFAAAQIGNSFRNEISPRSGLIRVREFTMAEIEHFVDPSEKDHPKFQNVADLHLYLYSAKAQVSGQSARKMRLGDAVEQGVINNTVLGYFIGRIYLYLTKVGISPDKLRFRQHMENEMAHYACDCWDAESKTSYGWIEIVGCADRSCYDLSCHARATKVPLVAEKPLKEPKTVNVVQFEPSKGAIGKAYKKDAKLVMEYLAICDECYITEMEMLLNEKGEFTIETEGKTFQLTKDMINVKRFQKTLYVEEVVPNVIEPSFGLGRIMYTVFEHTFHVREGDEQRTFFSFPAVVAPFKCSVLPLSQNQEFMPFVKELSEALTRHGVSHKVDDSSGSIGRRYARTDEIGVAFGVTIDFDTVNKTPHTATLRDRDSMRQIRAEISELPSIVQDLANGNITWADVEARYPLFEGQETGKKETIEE
As to the kind of experiment: ELISA; protein coated at 1 μg/ml, OD 450 nm.

The target of experiment [3] is T3, His-KRS (UniProt Q15046 1-597).
T3 construct: not shown: His tag
As to the kind of experiment: ELISA; protein coated at 1 μg/ml, OD 450 nm.

Experiment [4] deals with T4, His-CRS (UniProt P49589 1-748).
T4 construct: not shown: His tag
T4 sequence (looked up): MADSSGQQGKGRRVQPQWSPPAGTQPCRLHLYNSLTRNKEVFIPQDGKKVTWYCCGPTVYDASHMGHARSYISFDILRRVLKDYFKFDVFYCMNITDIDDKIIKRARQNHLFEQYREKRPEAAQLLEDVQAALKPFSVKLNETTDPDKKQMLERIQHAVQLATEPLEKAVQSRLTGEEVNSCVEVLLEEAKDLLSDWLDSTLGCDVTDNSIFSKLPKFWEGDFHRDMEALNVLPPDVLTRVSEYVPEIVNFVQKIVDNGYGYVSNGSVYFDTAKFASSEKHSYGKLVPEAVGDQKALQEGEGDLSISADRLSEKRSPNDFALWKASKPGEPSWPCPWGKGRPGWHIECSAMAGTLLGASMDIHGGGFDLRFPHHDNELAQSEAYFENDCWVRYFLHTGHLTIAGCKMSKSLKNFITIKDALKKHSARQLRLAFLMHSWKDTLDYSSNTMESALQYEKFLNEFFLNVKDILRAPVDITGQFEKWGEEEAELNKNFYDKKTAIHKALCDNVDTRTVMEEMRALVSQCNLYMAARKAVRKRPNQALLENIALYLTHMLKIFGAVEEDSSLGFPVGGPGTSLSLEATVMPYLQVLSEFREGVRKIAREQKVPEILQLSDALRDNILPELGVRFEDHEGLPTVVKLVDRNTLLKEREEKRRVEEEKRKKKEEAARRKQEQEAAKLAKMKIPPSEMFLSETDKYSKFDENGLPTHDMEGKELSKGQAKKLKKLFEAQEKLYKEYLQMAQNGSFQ
The experiment can be described thus: ELISA; protein coated at 1 μg/ml, OD 450 nm.

The target of experiment [5] is T5, His-AIMP1 (UniProt Q12904 1-312, limits assumed).
T5 construct: not shown: His tag
T5 sequence (looked up): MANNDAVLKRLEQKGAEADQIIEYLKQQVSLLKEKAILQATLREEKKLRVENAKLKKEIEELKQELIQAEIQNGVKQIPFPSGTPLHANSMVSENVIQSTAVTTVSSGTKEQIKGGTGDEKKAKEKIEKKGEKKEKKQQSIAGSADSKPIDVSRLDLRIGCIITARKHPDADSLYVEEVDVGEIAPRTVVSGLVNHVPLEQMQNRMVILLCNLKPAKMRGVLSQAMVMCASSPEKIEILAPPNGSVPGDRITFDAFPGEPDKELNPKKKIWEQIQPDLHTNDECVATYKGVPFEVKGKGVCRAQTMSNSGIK
As to the kind of experiment: ELISA; protein coated at 1 μg/ml, OD 450 nm.

The target in experiment [6] is T6, 34S-AIMP2 (UniProt Q13155 1-320).
T6 sequence (looked up): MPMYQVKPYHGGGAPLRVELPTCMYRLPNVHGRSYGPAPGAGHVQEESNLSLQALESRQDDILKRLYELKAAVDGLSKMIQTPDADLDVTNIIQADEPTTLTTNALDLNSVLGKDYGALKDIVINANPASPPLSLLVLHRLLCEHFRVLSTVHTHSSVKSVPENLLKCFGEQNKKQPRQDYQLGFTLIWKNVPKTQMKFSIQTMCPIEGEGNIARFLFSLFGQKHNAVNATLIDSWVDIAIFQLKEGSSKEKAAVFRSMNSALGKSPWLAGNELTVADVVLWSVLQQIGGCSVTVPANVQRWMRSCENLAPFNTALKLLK
As to the kind of experiment: ELISA; protein coated at 1 μg/ml, OD 450 nm.

Experiment [7] deals with T7, AIMP3 (Aminoacyl tRNA synthetase complex-interacting multifunctional protein 3) (Homo sapiens (Human), UniProt O43324 1-174, limits assumed).
T7 construct: also called AIMP3 단백질
T7 sequence: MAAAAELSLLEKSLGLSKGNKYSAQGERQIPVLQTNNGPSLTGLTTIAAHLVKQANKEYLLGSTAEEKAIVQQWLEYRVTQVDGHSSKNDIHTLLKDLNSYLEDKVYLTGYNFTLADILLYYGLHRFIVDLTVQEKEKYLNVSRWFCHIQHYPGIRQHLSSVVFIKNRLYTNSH
The experiment can be described thus: SPR; AIMP3 on CM5 chip, antibody flowed at various concentrations. On the technique in general: SPR reads the build-up and loss of mass on a sensor chip optically.

For experiment [8], the target named is T8, 메티오닐 티알엔에이 합성효소 (methionyl-tRNA synthetase, MRS) (human, UniProt P56192 1-900).
T8 construct: Full-length protein; In the cross-reactivity ELISA two preparations were coated (His-MRS, MRS full) and the result is told only for 'MRS'; In the western blots and cell staining it is the endogenous MRS of H460, PANC-1 and SCK cells; In SPR it was on the chip as MRS+AIMP3 co-purified protein; also called His-MRS; MRS full
T8 sequence: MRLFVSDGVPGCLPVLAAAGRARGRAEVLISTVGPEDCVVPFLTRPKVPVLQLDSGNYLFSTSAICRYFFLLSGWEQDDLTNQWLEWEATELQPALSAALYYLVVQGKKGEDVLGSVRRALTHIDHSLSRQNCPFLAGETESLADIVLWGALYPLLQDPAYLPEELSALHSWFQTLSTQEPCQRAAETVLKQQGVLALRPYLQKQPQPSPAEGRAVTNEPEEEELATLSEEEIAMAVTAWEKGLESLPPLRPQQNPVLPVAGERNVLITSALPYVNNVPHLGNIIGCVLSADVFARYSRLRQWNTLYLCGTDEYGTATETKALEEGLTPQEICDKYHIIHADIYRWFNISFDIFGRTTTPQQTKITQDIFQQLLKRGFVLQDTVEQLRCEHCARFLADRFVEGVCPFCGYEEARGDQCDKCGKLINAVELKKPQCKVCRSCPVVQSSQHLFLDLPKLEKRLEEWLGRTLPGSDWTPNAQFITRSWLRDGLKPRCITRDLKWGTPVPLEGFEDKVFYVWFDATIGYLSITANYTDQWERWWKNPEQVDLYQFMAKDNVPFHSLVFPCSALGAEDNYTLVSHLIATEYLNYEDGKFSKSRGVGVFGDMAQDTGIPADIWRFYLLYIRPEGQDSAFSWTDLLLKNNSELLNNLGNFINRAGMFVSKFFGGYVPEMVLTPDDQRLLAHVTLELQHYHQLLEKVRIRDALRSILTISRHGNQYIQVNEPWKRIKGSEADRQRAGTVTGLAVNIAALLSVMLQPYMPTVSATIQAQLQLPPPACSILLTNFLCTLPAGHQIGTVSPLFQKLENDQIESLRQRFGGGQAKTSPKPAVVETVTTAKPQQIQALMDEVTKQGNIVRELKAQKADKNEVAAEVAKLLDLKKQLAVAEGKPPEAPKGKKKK
The experiment can be described thus: SPR; MRS+AIMP3 co-purified protein on CM5 chip, antibody flowed at various concentrations.

T3 sequence (Q15046 whole entry): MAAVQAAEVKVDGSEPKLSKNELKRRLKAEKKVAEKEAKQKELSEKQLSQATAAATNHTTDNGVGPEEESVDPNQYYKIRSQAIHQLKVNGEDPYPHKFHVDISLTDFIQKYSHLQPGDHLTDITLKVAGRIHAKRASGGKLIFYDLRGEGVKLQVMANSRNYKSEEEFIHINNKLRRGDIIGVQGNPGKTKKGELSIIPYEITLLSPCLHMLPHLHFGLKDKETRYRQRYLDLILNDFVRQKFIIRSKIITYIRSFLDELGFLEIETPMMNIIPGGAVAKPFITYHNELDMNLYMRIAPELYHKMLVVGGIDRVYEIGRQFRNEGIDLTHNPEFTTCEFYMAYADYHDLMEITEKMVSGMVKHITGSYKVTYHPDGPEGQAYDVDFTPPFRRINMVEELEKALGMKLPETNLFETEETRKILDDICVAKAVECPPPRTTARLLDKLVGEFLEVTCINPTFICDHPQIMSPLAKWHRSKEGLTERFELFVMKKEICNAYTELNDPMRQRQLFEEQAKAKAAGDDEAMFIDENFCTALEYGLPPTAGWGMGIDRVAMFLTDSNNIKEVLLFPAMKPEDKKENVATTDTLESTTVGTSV

B1: 1E8 항체 (anti-MRS monoclonal antibody 1E8) (antibody, mouse IgG2a, kappa, V domains shown)
VH: DVKLQESGPGLVNPSQSLSLTCTVTGYSITSDYAWNWIRQFPGNKLEWMGYISYSGRTSYKSSLKSRISITRDTSKNQFFLELNSVTTEDTATYYCARDYGNFVGYFDVWGAGTTVTVSS
VL: DIVMTQSPSSLAVSVGEKVTMSCKSSQSLLYSSNQKNYLAWYQQKPGQSPKLLIYWASTRESGVPDRFTGSGSGTEFTLTISSVKAEDLAVYYCQQYYSYPTFGGGTKLEIKA
notes: Mouse monoclonal from hybridoma 1E8 (immunogen MRS-AIMP3 co-purified protein); also called 1E8 IgG; 1E8 antibody
A word on the Kd: it is the equilibrium constant for the complex coming apart. With B1, the binding result in experiment [1], in experiment [2], in experiment [3], in experiment [4], in experiment [5] and in experiment [6] was “no binding (tested: 500 ng/ml)” throughout. Also, the binding result in experiment [7] is “no binding”. Moreover, in experiment [8], binding was put at a Kd of 5.42 nM.

B2: 8A12 항체 (anti-MRS monoclonal antibody 8A12) (antibody, mouse IgG2a, kappa, V domains shown)
VH: DVKLQESGPGLVKPSQSLSLTCTVTGYSITSEYAWTWIRQFPGNKLEWMGYINYNGNTNLNPSLKSRISIIRDTSKNQFFLQLNSVTTEDTATYYCARSLWPRGWFAYWGQGTLVTVSA
VL: DIQMTQSPSSMYASLGERVTITCKASQDINSYLSWFQQKPGKSPKTLMYRANRLVDGVPSRFSGSGSGQDYSLTISSLEYEDMGIYYCLQYDEFPRTFGGGTKLEIKA
notes: Mouse monoclonal from hybridoma 8A12 (also named 34-8F2); also called 8A12 IgG; 8A12 antibody
As for B2, the binding result in experiment [1], in experiment [2], in experiment [3], in experiment [4], in experiment [5] and in experiment [6] was “no binding (tested: 500 ng/ml)” each time. Also, the binding result in experiment [7] is “no binding”. The same molecule had a Kd in experiment [8] of 1.56 nM.
